Earlier results in article PMC6389997.

Tests used:
Conditions in all cases: cited from earlier work
[1] = biological target: Im7 (unfolded-like) (Escherichia coli) (UniProt Q03708)
[2] = biological target: Im7 (folded) (Escherichia coli) (UniProt Q03708)
[3] = biological target: Im7 (intermediate-like) (Escherichia coli) (UniProt Q03708)
[4] = biological target: sigma32 (Escherichia coli) (UniProt P0AGB3)
Sequence of sigma32 (Escherichia coli) (P0AGB3 whole entry): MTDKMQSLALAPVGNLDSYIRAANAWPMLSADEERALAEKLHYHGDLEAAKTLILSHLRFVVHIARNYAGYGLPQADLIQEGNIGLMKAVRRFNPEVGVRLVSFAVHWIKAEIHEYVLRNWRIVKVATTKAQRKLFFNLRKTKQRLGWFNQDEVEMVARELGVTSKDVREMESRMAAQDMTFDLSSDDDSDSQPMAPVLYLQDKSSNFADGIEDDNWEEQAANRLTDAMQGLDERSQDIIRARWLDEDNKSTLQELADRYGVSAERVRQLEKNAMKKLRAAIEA

Sequence of Spy (P77754 24-161): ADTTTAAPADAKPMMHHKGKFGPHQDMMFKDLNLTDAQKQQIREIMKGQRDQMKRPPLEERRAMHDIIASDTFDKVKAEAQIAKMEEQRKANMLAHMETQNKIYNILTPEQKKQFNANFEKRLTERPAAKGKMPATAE
Sequence of DnaK (P0A6Y8 2-638): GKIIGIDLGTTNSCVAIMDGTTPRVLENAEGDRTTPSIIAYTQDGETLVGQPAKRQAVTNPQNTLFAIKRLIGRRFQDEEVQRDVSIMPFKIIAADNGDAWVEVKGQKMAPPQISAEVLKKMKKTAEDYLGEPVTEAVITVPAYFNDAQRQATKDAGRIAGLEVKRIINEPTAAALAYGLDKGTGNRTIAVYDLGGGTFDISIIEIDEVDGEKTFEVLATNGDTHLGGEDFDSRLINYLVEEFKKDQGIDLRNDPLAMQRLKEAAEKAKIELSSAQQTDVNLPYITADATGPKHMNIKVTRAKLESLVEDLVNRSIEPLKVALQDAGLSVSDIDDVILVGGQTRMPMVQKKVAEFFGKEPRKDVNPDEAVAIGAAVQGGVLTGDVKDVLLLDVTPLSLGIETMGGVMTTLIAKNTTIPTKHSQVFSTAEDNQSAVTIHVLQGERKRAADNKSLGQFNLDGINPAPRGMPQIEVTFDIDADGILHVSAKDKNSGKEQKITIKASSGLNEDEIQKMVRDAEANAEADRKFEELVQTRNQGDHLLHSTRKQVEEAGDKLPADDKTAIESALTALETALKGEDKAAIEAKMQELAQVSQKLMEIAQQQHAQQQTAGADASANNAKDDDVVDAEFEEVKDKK
Sequence of Im7 (unfolded-like) (Escherichia coli) (Q03708 whole entry): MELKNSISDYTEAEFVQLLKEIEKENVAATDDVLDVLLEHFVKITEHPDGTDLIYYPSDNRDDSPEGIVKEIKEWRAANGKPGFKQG
Sequence of Im7 (folded) (Escherichia coli) (Q03708 whole entry): as above
Sequence of Im7 (intermediate-like) (Escherichia coli) (Q03708 whole entry): as above

Substance | Kd [1] | Kd [2] | Kd [3] | Kd [4]
Spy (from UniProt P77754) | 10.4 µM | 20.5 µM | 3.5 µM | –
DnaK (from UniProt P0A6Y8) | – | – | – | 1.4 µM
